{
  "source": "paper PMC4066749",
  "about": "“A sequence-based approach for prediction of CsrA/RsmA targets in bacteria with experimental validation in Pseudomonas aeruginosa” (Nucleic Acids Research, 2014)",
  "proteins": {"B1": {"name": "RsmA-R44A mutant (natural protein)", "chain": "MLILTRRVGETLMVGDDVTVTVLGVKGNQVRIGVNAPKEVAVHAEEIYQRIQKEKDQEPNH", "notes": "RsmA of Pseudomonas aeruginosa with R44A; also called the mutant"}, "B2": {"name": "RsmA (regulator of secondary metabolism), His-tagged (natural protein)", "chain": "not shown", "notes": "also called CsrA homolog; wild-type RsmA protein; source: purification from E. coli"}},
  "molecular_target": "the molecule itself",
  "test": "SEC; Superdex 75 HR 10/30 analytical column calibrated with a Gel Filtration LMW Calibration Kit; absorbance at 280 nm; apparent molecular weights from elution volumes",
  "data": [
    {"protein": "B1", "values": [
      {"measurement": "binding result", "value": "binds"}
    ]},
    {"protein": "B2", "values": [
      {"measurement": "stoichiometry N", "value": 2}
    ]}
  ]
}
